This is an account of results in publication PMC3225930.

The target in assay [1] is trypsin.
The target in assay [2] is α-chymotrypsin.
Assay [3] has as its target α-chymotrypsin. As to the kind of experiment: enzyme inhibition kinetics (reciprocal plots); α-chymotrypsin with substrate N-benzoyl-tyrosine ethyl ester (BTEE, 0-2 mM), 50 mM Tris-HCl pH 7.8, 25 °C; read at 253 nm; Spi1C at 0, 22.7, 45.4 and 68.1 nmol/L in the Lineweaver-Burk plots.
The target in assay [4] is trypsin. Description: enzyme inhibition kinetics (reciprocal plots); trypsin with substrate H-D-Phe-Pip-Arg-pNA (S-2238, 0-2 mM), 50 mM Tris-HCl pH 7.8, 25 °C; Spi1C pre-incubated with the enzyme for 15 min; pNA read at 405 nm; Spi1C at 0, 22.7, 45.4 and 68.1 nmol/L in the Lineweaver-Burk plots.

The term Ki denotes a dissociation constant, usually derived from enzyme kinetics or from competition with a known ligand. In the assay with trypsin [1], “recombinant Spi1C protein (natural protein)” showed a specific inhibitor activity (inhibition of trypsin activity) of 6940 U/mg. The substance further came in with a specific inhibitor activity (inhibition of α-chymotrypsin activity) in the assay with α-chymotrypsin [2] of 3640 U/mg. In addition, the Ki was 0.0179 µM with α-chymotrypsin [3] and 0.0152 µM with trypsin [4].
